Reference: the RNAGym collection of RNA variant scans (doi:10.1073/pnas.2313332121)
Fewer inactive variants are shown than the library holds.

B1: TPR 5TU (parent)
chain: GGAUCUUCUCGAUCUAACAAAAAAGACAAAUCUGCCACAAAGCUUGAGAGCAUCUUCGGAUGCAGAGGCGGCAGCCUUCGGUGGCGCGAUAGCGCCAACGUUCUCAACUAUGACACGCAAAACGCGUGCUCCGUUGAAUGGAGUUUAUCAUG

Variants of: B1
Assay: polymerase ribozyme fitness, log enrichment relative to wild type (log ratio); higher = more active; in vitro selection for triplet polymerase activity
How it was run: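 Mutant libraries were PCR-built and transcribed for each subunit of a heterodimeric triplet polymerase ribozyme and selected for one round in triplicate at −7 °C, frozen, before gel excision of extended constructs and streptavidin-bead capture. Input and output libraries were Illumina-sequenced, keeping genotypes with ≥10 input reads and ≥1 read per output. Fitness is a logarithmic ratio of genotype to wild-type enrichment, in base 2, using inverse-variance-weighted replicate averages.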

C38G A40G A49G A60U C93A A121G and C38U G88C G126C A147C cannot be ordered by “polymerase ribozyme fitness (log ratio)” value: no more than -4.2 for the first, no more than -4.2 for the second.

C38U C87U G94U and C38U U53G C96G are the same in “polymerase ribozyme fitness (log ratio)” value: -1.73 for the first, -1.73 for the second.

C38G G42U G68A U77A C96U G141U and C38A C87U A98G A106C C125A U135A C149A cannot be ordered by “polymerase ribozyme fitness (log ratio)” value: no more than -4.2 for the first, no more than -4.2 for the second.

C38A G48C G71U and C38A A40U G48U C87G C99U G124A G140C cannot be ordered by “polymerase ribozyme fitness (log ratio)” value: no more than -4.2 for the first, no more than -4.2 for the second.

A37G and A37U are within 0.2 log units of each other in “polymerase ribozyme fitness (log ratio)” value: -1.24 for the first, -1.11 for the second.

Going from C38A C43A U55A C87U G117A to C38U G86U C118U, the “polymerase ribozyme fitness (log ratio)” value rises from no more than -4.2 to -2.07.

C38A C93G C96U A115G G117A and A37U U77G C96A A106G cannot be ordered by “polymerase ribozyme fitness (log ratio)” value: no more than -4.2 for the first, no more than -4.2 for the second.

Compared with C38U A107C, A37G A39C C87A C116U G136A is lower in “polymerase ribozyme fitness (log ratio)” value: -3.45 for the first, no more than -4.2 for the second.

First: A37G G84A U101G A120G
Second: A37C G83U C93G A97G G100U
The “polymerase ribozyme fitness (log ratio)” value of the first is higher: -2.6 for the first, no more than -4.2 for the second.

Going from C38A C63G A150G to A37U A121G G152U, the “polymerase ribozyme fitness (log ratio)” value falls from -3 to -3.84.

Compared with C38A U55A C85A, A37G C85U is higher in “polymerase ribozyme fitness (log ratio)” value: -2.66 for the first, -2.1 for the second.

Compared with A37U G88U G92C A122G G133U G143A A150U, C38U U55A C85U is higher in “polymerase ribozyme fitness (log ratio)” value: -4.06 for the first, -0.272 for the second.

First: C38A C57G U77G C79U A91G
Second: C38A C93G C123G
The “polymerase ribozyme fitness (log ratio)” value of the first is lower: no more than -4.2 for the first, -3.67 for the second.

C38U G50A A52U G68U G80A A97G A137U and C38U G81C U111G A138G cannot be ordered by “polymerase ribozyme fitness (log ratio)” value: no more than -4.2 for the first, no more than -4.2 for the second.

Compared with C38A C93A, C38G G42C G71C C95A C96A is lower in “polymerase ribozyme fitness (log ratio)” value: -2.59 for the first, no more than -4.2 for the second.

Compared with A37G U45A C76G U82G C93G A113C G136U, A37U G86U is higher in “polymerase ribozyme fitness (log ratio)” value: no more than -4.2 for the first, -3.44 for the second.

C38G A89C C93A C95G U109C and C38U G84U C87G U144C C149G cannot be ordered by “polymerase ribozyme fitness (log ratio)” value: no more than -4.2 for the first, no more than -4.2 for the second.

First: C38G C54A G74U A106U G140U
Second: A37C G92A U146G
The “polymerase ribozyme fitness (log ratio)” value of the first is lower: no more than -4.2 for the first, -4.01 for the second.

Going from C38A U53A C63U G80A C95A to C38U G62A A113G G136A, the “polymerase ribozyme fitness (log ratio)” value rises from no more than -4.2 to -2.45.

First: C38U G83U C123U U148C
Second: C38A A73G C79A C114G G124U G140U U148G
The “polymerase ribozyme fitness (log ratio)” value of the first is higher: -2.21 for the first, no more than -4.2 for the second.

First: C38U C75A G80U
Second: A37G A40U C54G A60G
The “polymerase ribozyme fitness (log ratio)” value of the first is lower: -4.14 for the first, -2.66 for the second.

Going from A37G A41C G71A U90A C96U to C38U A73G C87U, the “polymerase ribozyme fitness (log ratio)” value rises from no more than -4.2 to 0.139.

Going from C38U C69G C95U A122C to C38A U148A, the “polymerase ribozyme fitness (log ratio)” value falls from -2.43 to -4.04.

Compared with A37U A142G G152U, A37G C38A G48U is higher in “polymerase ribozyme fitness (log ratio)” value: -4.13 for the first, -2.25 for the second.

First: C38G A40G G83A
Second: A37C U77C G92A C96A U139C
The “polymerase ribozyme fitness (log ratio)” value of the first is higher: -3.86 for the first, no more than -4.2 for the second.

First: C38A U55G A60G
Second: C38U C87U C95U U144A
The “polymerase ribozyme fitness (log ratio)” value of the first is higher: 0.135 for the first, -1.21 for the second.

First: A37C G83A A122U C131U U134C
Second: C38U C57A C63U C95U A98U C99G
The “polymerase ribozyme fitness (log ratio)” value of the first is higher: 0.318 for the first, -1.54 for the second.

Going from C38U A39C A60U to C38G A120U G140C A142C, the “polymerase ribozyme fitness (log ratio)” value falls from -3.28 to no more than -4.2.

Going from A37C G94U A98U to A37U C85G C125U G141A, the “polymerase ribozyme fitness (log ratio)” value falls from -1.16 to no more than -4.2.

First: C38G G58C G84A A119U
Second: A37G A39U G50A A142U
The “polymerase ribozyme fitness (log ratio)” value of the first is higher: -0.795 for the first, no more than -4.2 for the second.

Going from C38U A41G G58A to C38U G46A C95A, the “polymerase ribozyme fitness (log ratio)” value falls from 1.52 to -0.705.

A37U G42A C85A A138G and A37C G80C G92A C129A cannot be ordered by “polymerase ribozyme fitness (log ratio)” value: no more than -4.2 for the first, no more than -4.2 for the second.

Compared with C38U C76U G81C, C38A G86C is lower in “polymerase ribozyme fitness (log ratio)” value: -0.0752 for the first, -3.27 for the second.

Going from C38A C63A C95U A106G to C38U A40U C116U U135A, the “polymerase ribozyme fitness (log ratio)” value rises from -1.81 to 0.399.

Going from C38U C57G A89U G100C to C38G G140C, the “polymerase ribozyme fitness (log ratio)” value rises from no more than -4.2 to -4.11.

Compared with A37U G80C G81C U102A A110U C118G A120U G133U, C38U A120U is higher in “polymerase ribozyme fitness (log ratio)” value: no more than -4.2 for the first, -0.54 for the second.

First: C38U U44A G70C U134G
Second: C38U A52C A60G A119G
The “polymerase ribozyme fitness (log ratio)” value of the first is lower: no more than -4.2 for the first, 0.129 for the second.

Compared with C38U A66G U82A C96U C125A U145A, A37U G92C G133C is higher in “polymerase ribozyme fitness (log ratio)” value: no more than -4.2 for the first, -3.52 for the second.

First: A37G U45G C57G C95U
Second: C38U A60C U77G C87U G94A U101A C105A
The “polymerase ribozyme fitness (log ratio)” value of the first is higher: -3.33 for the first, no more than -4.2 for the second.

Compared with C38A C93A G143U, A37G U77A C87A C99U G140C A147U is lower in “polymerase ribozyme fitness (log ratio)” value: -4.12 for the first, no more than -4.2 for the second.

Compared with C38U G92U C95G A106U, C38U G94U is higher in “polymerase ribozyme fitness (log ratio)” value: no more than -4.2 for the first, -0.0168 for the second.

With C38A G84A G86C G117U the “polymerase ribozyme fitness (log ratio)” value was no more than -4.2.
